The record followed here is US20090238821A1.

The target of one assay is Amyloid-beta 1-40 (UniProt P05067). Put plainly: BIAcore 2000, antibody captured by rabbit anti-mouse, peptide flowed. For orientation: Surface plasmon resonance follows binding to a sensor surface in real time, without labels.
The next assay deals with Amyloid-beta 1-42 (UniProt P05067). The description is as above.
For assay [1], the target named is human Aβ peptide (human) (UniProt P05067). In words: BIAcore 2000, 266 against 4G8.
For assay [2] the target is unchanged. Put plainly: plasma of APP V717F mice given 200 or 600 µg Mab 266 i.v., RIA (in vivo).
Assay [3] has the same target. In words: dialysis chamber, 1 mL human CSF against 1 µg Mab 266, 25 kD cutoff, 3 hours, ELISA. (In general: An ELISA detects its analyte on a solid surface through an enzyme-linked reagent.)
For assay [4] the target is unchanged. Put plainly: dialysis chamber, 1 mL human CSF against 1 µg Mab 266, 100 kD cutoff, 3 hours, ELISA.
The target in assay [5] is β-amyloid peptide (1-42) conjugated to BSA (UniProt P05067). In words: competitive ELISA on Aβ1-42-BSA, competitor of biotinylated Mu266 (0.3 µg/ml), first set.
The target is the same in assay [6]. Put plainly: competitive ELISA on Aβ1-42-BSA, competitor of biotinylated Mu266 (0.3 µg/ml), second set.
The target of assay [7] is human Aβ peptide (human) (UniProt P05067). Put plainly: plasma of APP V717F mice given 1 mg Mab 266 i.v., non-denaturing gel, blot with biotin-3D6 and 125I-streptavidin against Aβ40/266 standards (in vivo).

Regarding Mab 4G8 (antibody), the Kd with Amyloid-beta 1-40 is 23 nM; in the assay with Amyloid-beta 1-42, 24 nM.

For mouse monoclonal antibody 266, in the assay with human Aβ peptide (human) [1], the fold difference in affinity between 266 and 4G8 is 6000 fold. Besides, the Kd with Amyloid-beta 1-40 and with Amyloid-beta 1-42 was 4000 nM in each case. This substance also came in with a concentration of Aβ bound to Mab 266 in plasma with human Aβ peptide (human) [2] greater than 100 ng/mL. The percent of Aβ peptide sequestered in the bottom chamber with human Aβ peptide (human) [3] came to 50%. This substance also registered a percent of Aβ peptide drawn across the membrane with human Aβ peptide (human) [4] of 100%. Also, the IC50 in [5] came to 4.7 µg/mL; in assay [6] it was 3.87 µg/mL. In the assay with human Aβ peptide (human) [7], this substance displayed an amount of Aβ peptide bound to Mab 266 in plasma of 100 ng/mL.

By Kd is commonly meant the equilibrium constant for the complex coming apart. Read a low Kd as higher affinity. As a reminder, the IC50 is the midpoint of a concentration-inhibition curve. Lower therefore signals higher potency.
